Measured values reported in IntAct's records for PubMed 20148946.

Target: T1, unkl_human UNKL (UniProt Q9H9P5)
T1 sequence: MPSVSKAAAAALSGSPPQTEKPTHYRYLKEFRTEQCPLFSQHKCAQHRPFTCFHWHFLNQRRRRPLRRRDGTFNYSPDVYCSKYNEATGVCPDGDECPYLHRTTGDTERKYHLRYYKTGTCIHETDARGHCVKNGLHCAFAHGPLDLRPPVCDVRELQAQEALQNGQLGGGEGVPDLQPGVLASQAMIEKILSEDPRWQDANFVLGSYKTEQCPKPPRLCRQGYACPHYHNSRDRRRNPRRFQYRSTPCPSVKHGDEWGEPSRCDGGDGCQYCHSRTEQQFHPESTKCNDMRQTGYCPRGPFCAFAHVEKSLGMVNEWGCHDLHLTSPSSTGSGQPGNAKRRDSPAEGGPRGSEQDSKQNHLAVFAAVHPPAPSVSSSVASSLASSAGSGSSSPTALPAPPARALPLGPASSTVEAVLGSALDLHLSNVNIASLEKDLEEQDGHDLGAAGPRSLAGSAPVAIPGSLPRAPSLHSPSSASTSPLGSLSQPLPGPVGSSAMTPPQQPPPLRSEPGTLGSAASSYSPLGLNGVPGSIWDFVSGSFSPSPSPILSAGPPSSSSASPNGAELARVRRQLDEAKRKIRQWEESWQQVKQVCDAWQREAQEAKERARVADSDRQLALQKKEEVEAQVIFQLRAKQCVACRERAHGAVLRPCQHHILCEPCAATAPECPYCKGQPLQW

## Ras-related C3 botulinum toxin substrate 1 (Homo sapiens) (from UniProt P63000) Q61L
  effect of a mutation on the interaction: increasing interaction
